Laboratory results from patent US10947270B2, “Targeted prodrug cytosine deaminase fusion carrier and application thereof” (National Yang-Ming University, priority 2015, dated 2021).
“And” between values parts separate entries of the source, which are not always exact repeats. Identical values can stand only once. Like-named read-outs stand apart in the source and are kept apart here.

B1: EcCD_WT: E. coli. cytosine deaminase (EcCD), wild type, without target molecule (protein)
chain: MSNNALQTIINARLPGEEGLWQIHLQDGKISAIDAQSGVMPITENSLDAEQGLVIPPFVEPHIHLDTTQTAGQPNWNQSGTLFEGIERWAERKALLTHDDVKQRAWQTLKWQIANGIQHVRTHVDVSDATLTALKAMLEVKQEVAPWIDLQIVAFPQEGILSYPNGEALLEEALRLRADVVGAIPHFEFTREYGVESLHKTFALAQKYDRLIDVHCDEIDDEQSRFVETVAALAHHEGMGARVTASHTTAMHSYNGAYTSRLFRLLKMSGINFVANPLVNIHLQGRFDTYPKRRGITRVKEMLESGINVCFGHDDVFDPWYPLGTANMLQVLHMGLHVCQLMGYGQINDGLNLITHHSARTLNLQDYGIAAGNSANLIILPAENGFDALRRQVPVRYSVRGGKVIASTQPAQTTVYLEQPEAIDYKRLEHHHHHH
modifications: EcCD_WT
notes: E. coli. cytosine deaminase (EcCD), wild type, without target molecule
B2: EcCD_D314A: E. coli. cytosine deaminase (EcCD) mutant D314A, without target molecule (protein)
chain: MSNNALQTIINARLPGEEGLWQIHLQDGKISAIDAQSGVMPITENSLDAEQGLVIPPFVEPHIHLDTTQTAGQPNWNQSGTLFEGIERWAERKALLTHDDVKQRAWQTLKWQIANGIQHVRTHVDVSDATLTALKAMLEVKQEVAPWIDLQIVAFPQEGILSYPNGEALLEEALRLRADVVGAIPHFEFTREYGVESLHKTFALAQKYDRLIDVHCDEIDDEQSRFVETVAALAHHEGMGARVTASHTTAMHSYNGAYTSRLFRLLKMSGINFVANPLVNIHLQGRFDTYPKRRGITRVKEMLESGINVCFGHDAVFDPWYPLGTANMLQVLHMGLHVCQLMGYGQINDGLNLITHHSARTLNLQDYGIAAGNSANLIILPAENGFDALRRQVPVRYSVRGGKVIASTQPAQTTVYLEQPEAIDYKRLEHHHHHH
modifications: EcCD_D314A
notes: E. coli. cytosine deaminase (EcCD) mutant D314A, without target molecule

What was measured:
[1] = literature, Biochemistry 2004, 43, 8957-8964; cited from earlier work
[2] = tested on: U87MG, HUVEC and MCF-7 cells; experiment: Immunofluorescence of binding and distribution of EcCD fusion proteins in cells; assay type: cell-based, human; conditions: 37° C., 2 hours
Protocol: FIGS. 15A-15C show the binding and distribution of EcCD fusion proteins in U87MG, HUVEC and MCF-7 cell strain. The immunofluorescence staining is used to observe and experiment the EcCD fusion protein, which are respectively acted with U87MG cells in FIG. 15A, HUVEC cells in FIG. 15B and MCF-7 cells in FIG. 15C for 2 hours at 37° C., then fixed with 2% para-formadehyde, the fixed cells are first permeabilized with 0.1% Triton X-100 for 10 minutes, after that, cultured with 1% BSA blocking (dissolved in PBS containing Ca^2+, Mg^2+) for 1 hour at room temperature, then add a 1st antibody (Rabbit anti-His^6tag, Mouse anti-human CD51/61αvβ3 integrin), and then add a 2nd antibody (Anti-rabbit IgG-CF640R, Anti-mouse IgG-Alexa488), the protein distribution is observed by conjugated fluorescence microscope. (Green signal: αvβ3 integrin; red signal: anti-His^6tag; blue signal: Hoechst 33342 cell nucleus stain) (Scale bars: 20 μm)
Immunofluorescence is used to observe the distribution of the protein bound with cell in the cell. U87MG, HUVEC and MCF-7 cells act with culture medium containing EcCD_WT, RGD4C-EcCD_WT, EcCD_D314A and RGD4C-EcCD_D314A proteins at 37° C. for 2 hours, stain the cell, and observe protein distribution by the conjugated fluorescence microscopy.

[3] = Enzyme kinetic analysis of EcCD series fusion proteins, substrate 5-FC; assay type: biochemical
Description: (§1) FIGS. 11A-11D show the activity and kinetics analysis of EcCD series fusion protein enzymes, and the EcCD series proteins are combined with 5-FC at different concentrations for reaction. Respectively calculate the 5-FU formation reaction rate shown in FIG. 11A, 5-FC consumption reaction rate shown in FIG. 10B, uracil formation reaction rate shown in FIG. 10C and cytosine consumption reaction rate shown in FIG. 10D, substitute Michaelis-Menten formula, and calculate the base mass (Kcat) and Km value catalyzed by each mol enzyme in unit time.

[4] = Relative substrate selectivity of cytosine deaminase enzyme for 5-FC and cytosine (formula 1); assay type: biochemical; conditions: for [Kcat/Km(5-FC)]/{[Kcat/Km(cytosine)] + [Kcat/Km(5-FC)]}: relative substrate selectivity to 5-FC
Description: Evaluation of the relative substrate selectivity of cytosine deaminase enzyme for 5-FC and Cytosine can be expressed by the following formula 1,
The higher the value, the higher the selectivity of the enzyme to the 5-FC substrate.

[5] = Enzyme kinetic analysis of EcCD series fusion proteins, substrate cytosine; assay type: biochemical
Description: as §1, with “time. […]” for “time.”

| Molecule | [Kcat/Km(5-FC)]/{[Kcat/Km(cytosine)] + [Kcat/Km(5-FC)]} [1] | binding with cells [2] | Kcat ([3]; 5-FC consumption (Table 5)) | Km ([3]; 5-FC consumption (Table 5)) | Kcat ([3]; 5-FU generation) | Km ([3]; 5-FU generation) | [Kcat/Km(5-FC)]/{[Kcat/Km(cytosine)] + [Kcat/Km(5-FC)]} [4] | [Kcat/Km(5-FC)]/{[Kcat/Km(cytosine)] + [Kcat/Km(5-FC)]} ([4]; listed as EcCDWT) | Kcat ([5]; cytosine consumption) | Km ([5]; cytosine consumption) | Kcat ([5]; uracil generation) | Km ([5]; uracil generation) | Kcat/Km higher than that of the corresponding WT protein ([3]; substrate 5-FC) | relative substrate selectivity to 5-FC higher than the corresponding WT protein [4] | Kcat/Km lower than that of the corresponding WT protein ([5]; substrate cytosine) |
| --- | --- | --- | --- | --- | --- | --- | --- | --- | --- | --- | --- | --- | --- | --- | --- |
| B1 | 0.027 | do not have the ability of binding with U87MG and HUVEC cells | 9.2 ± 0.8 s⁻¹ and 8.8 ± 0.8 s⁻¹ | 2800 µM and 2700 µM | 8.8 ± 0.9 s⁻¹ and 9.2 ± 0.6 s⁻¹ | 2900 ± 800 µM | 0.032 | 0.033 | 132.0 ± 5.0 s⁻¹ | 1300 ± 100 µM | 157.3 ± 2.4 s⁻¹ | 1600 µM and 1700 µM | – | – | – |
| B2 | 0.513 | do not have the ability of binding with U87MG and HUVEC cells | 35.1 ± 1.7 s⁻¹ and 36.2 ± 1.5 s⁻¹ | 3800 µM and 4000 µM | 36.2 ± 1.8 s⁻¹ and 35.4 ± 0.8 s⁻¹ | 3900 ± 600 µM | 0.558 and 0.535 | – | 22.3 ± 1.6 s⁻¹ | 2600 ± 400 µM | 24.5 ± 1.1 s⁻¹ | 3000 µM and 3100 µM | about 3.1 times | about 17.4 times | about 12.5 times |
